System: MS2 coat protein
Experiment: apparent KD of MS2 coat protein; designed switch direction (-1 OFF switch, 1 ON switch): 1; higher = weaker reporter binding
Procedure, shortened: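 An oligonucleotide input, 200 uM small-molecule ligand, or no input was present during titration of SNAP-549-labelled MS2 coat protein, which was doubled from 0.7 or 1.5 nM to 3 µM. Designed RNA switches had been transcribed on Illumina chips by stalled E. coli RNA polymerase. Apparent KD per design is the median over clusters of curves fitted to normalised cluster fluorescence.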

[1] = Eterna round: R95, input ligand: FMN 200 uM
[2] = Eterna round: R95, input ligand: microRNA oligo, concentration not stated
[3] = Eterna round: R95, input ligand: none
[4] = input ligand: microRNA oligo, concentration not stated

Row | Sequence | apparent KD of MS2 coat protein [1] | apparent KD of MS2 coat protein [2] | apparent KD of MS2 coat protein [3] | apparent KD of MS2 coat protein [4] | apparent KD of MS2 coat protein (input ligand: FMN 200 uM) | apparent KD of MS2 coat protein (input ligand: none)
1 | AACAAUCUAUCUGAGGAUAUCAUGAAAUAAACAUGAGGAUCACCCAUGUGCAGGAAAACUGCAUAUGAGAAGGCUGAUAGAUUGA [salish99_ss2_r3_051] (puzzle: Same State 2) | 78 nM | 574 nM | 5350 nM | – | – | –
2 | AACAAUCUAUCUGAGGAUAUCAUGAAAUAAACAUGAGGAUCACCCAUGUGUAGGAAAACUGCAUAUGAGAAGGCAGAUAGAUUGA [salish99_ss2_r3_036] (Eterna round: R96, puzzle: Same State 2) | – | – | – | 465 nM | – | –
3 | AACAAUCUAUCUGAGGAUAUCAUGAAAUAAACAUGAGGAUCACCCAUGUGUAGGAAAACUGCAUAUGAGAAGGCAGAUAGAUUGA [salish99_ss2_r3_036] (puzzle: Same State 2) | 31.9 nM | 299 nM | 1330 nM | – | – | –
4 | AACAAUCUAUCUGAGGAUAUCAUGUAAUAAACAUGAGGAUCACCCAUGUGCAGGAAAACUGCAUAUGAGAAGGCAGAUAGAUUGA [salish99_ss2_r3_030] (puzzle: Same State 2) | 182 nM | 134 nM | 180 nM | – | – | –
5 | AACAAUCUAUCUGAGGAUAUCAUGUCAAAGACAUGAGGAUCACCCAUGUACCAGGAAACUGGUUAUGAGAAGGCAGAUAGAUUGA [SS2: 1115] (Eterna round: R96, puzzle: Same State 2) | – | – | – | 596 nM | 48.2 nM | 932 nM
6 | AACAAUCUAUCUUAGGAUAUCAUGAAAUAAACAUGAGGAUCACCCAUGUGCAGGAAAACUGCAUAUGAGAAGGCAGAUAGAUUGA [salish99_ss2_r3_026] (puzzle: Same State 2) | 593 nM | 36.2 nM | 42.2 nM | – | – | –
7 | AACAUGUGGUGUCACAUGAGGAUCACCCAUGUGGUAAAAGCUGAGGAUAUAAAGAGAAACAUGAAUUAGAAGGUAGGAUCACAA [AK SSNG3-V2-19] (Eterna round: R96, puzzle: Same State NG 3) | – | – | – | 138 nM | 177 nM | 127 nM
8 | AACUAUCUAUCUCAGGAUAUCAUGUCAAAGACAUGAGGAUCACCCAUGUACCAGGAAACUGGUUAUGAGAAGGGAGAUAGAUAGG [Mat - Same State 2 - Mod - D42] (puzzle: Same State 2) | 193 nM | 64.8 nM | 68.3 nM | – | – | –
9 | AAGCUCGUGUGAGGAUAUGCCGCCGUUUCGGCUGCAGAAGGUGCUACGUUACAUGAGGAUCACCCAUGUCUCUGUUGUUUCGUU [salish99_SSNG1_r04_951] (Eterna round: R96, puzzle: Same State NG 1) | – | – | – | 15.9 nM | 18.7 nM | 20.8 nM
10 | AAGUAACAUGAGGAUCACCCAUGUGAGGUGAGCGUAGGAUAUCGAGAAGGAAGGGUGGAGCGAGAAGGACGAAGGA [JR_SS1_Sub0102] (puzzle: Same State 1) | 349 nM | 192 nM | 501 nM | – | – | –
11 | AAGUAACAUGAGGAUCACCCAUGUGAGGUGAGCGUAGGAUAUCGAGGAGGAAGGGUGGAGCGAGAAGGACGAGAAG [JR_SS1_Sub097] (puzzle: Same State 1) | 114 nM | 262 nM | 402 nM | – | – | –
12 | AAGUUAAGCUUUUUGUUCUGCCUAUUCUGACAUGAGGAUCACCCAUGUGGUCGAACGACUACGUGUGUAGUUGAGAU [JR_SHM208A_Sub030] (Eterna round: R96, puzzle: Sensor for hsa-mir-208a) | – | – | – | 341 nM | 493 nM | 550 nM
13 | AAGUUAAGCUUUUUGUUCUGCCUAUUCUGACAUGAGGAUCACCCAUGUGGUCGAACGACUACGUGUGUAGUUGAGAU [JR_SHM208A_Sub030] (puzzle: Sensor for hsa-mir-208a) | 174 nM | 252 nM | 278 nM | – | – | –
14 | AAUUAAUUAAUACAUGAGGAUCACCCAUGUAAUUAUUAGAUCAAGGAUAUCAGCUCGAAUAGAGCUGAGAAGGUGAUCACAUGU [SSNG3/18-A1] (Eterna round: R96, puzzle: Same State NG 3) | – | – | – | 259 nM | – | –
15 | AAUUAAUUAAUUAAUAUACAUGAGGAUCACCCAUGUAAGAUCAAGGAUAUCAGCUCGAUUAGAGCUGAGAAGGUGAUCACAUGU [SSNG3/16-A2] (Eterna round: R96, puzzle: Same State NG 3) | – | – | – | 207 nM | – | –
16 | ACAAAGAACACAGGAUAUCGGAAAGGAAGUGUACGAGAAGGGUGGUCAACAGUACAUGAGGAUCACCCAUGUGGUGGAUGGCAA [PowerStrip SSNG 1.12] (Eterna round: R96, puzzle: Same State NG 1) | – | – | – | 2.42 nM | 177 nM | 1440 nM
17 | ACAAGACAUGAGGAUCACCCAUGUAUAAAUUACACAGGAUAUCGGCGGACCGCACCCGCACGAGAAGGGUGACUUC [Eszaleer] (puzzle: Same State 1) | 472 nM | 34.1 nM | 24.7 nM | – | – | –
18 | ACAAGCUUUUCUGUAUUGAAAGGUGGGAUACAUGAGGAUCACCCAUGUUUUUUUGAAAAUAAUAUUCCUCGUCUUAU [JR_SHM208A_Sub091] (puzzle: Sensor for hsa-mir-208a) | 51.5 nM | 33.1 nM | 47.1 nM | – | – | –
19 | ACACUCCGUGGAGGAUAUGGGCCUGCCCGGGAUACCGGGCCUAACACAUGAGGAUCACCCAUGUCCCAGAAGGCCGCUGGAGCC [Enenala] (Eterna round: R96, puzzle: Same State NG 2) | – | – | – | 55.7 nM | 26.2 nM | 120 nM
20 | ACAUGAGAACGAGGAUAUUUUGUACCUACAUGUGACAUGAGGAUCACCCAUGUGGUAAGUAUGAGAAAGAAGGCGUAGAUAUGU [Equivalence 14 - Jieux - Same State NG 2] (Eterna round: R96, puzzle: Same State NG 2) | – | – | – | 30.6 nM | 21.9 nM | 29 nM
21 | ACAUGAGACCAAGGAUAUUUUGUACCUACAUGUGACAUGAGGAUCACCCAUGUGGUAAGUAUGAGAAAGAAGGUGGAGAUAUGU [Equivalence 22 - Jieux - Same State NG 2] (Eterna round: R96, puzzle: Same State NG 2) | – | – | – | 22.5 nM | 22.8 nM | 37 nM
